Assay: yeast display, Sf9 membrane polyspecificity reagent, FACS + sequencing; frameworks hold sequencing errors
Method in brief: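 Nanobodies from a synthetic yeast display library (Saccharomyces cerevisiae BJ5465), induced 36–48 hours with galactose, were stained 1 hour at 4 °C with 10% biotinylated, detergent-solubilized Sf9 membrane reagent, enriched on streptavidin microbeads, then FACS-sorted. Anti-HA (expression) and streptavidin (reagent binding) fluorescence set low and high (top ~1%) gates. Polyreactivity labels come from the gate of origin. Genes were colony-PCR amplified, MiSeq 2 × 250 sequenced and filtered by CDR length.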

Sequence | polyreactivity (PSR sort gate)
QVHLVESGGGLVQAGGSLRLSCAASGSIFYSYAMGWYRQAPGKERELVASINWSGASTYYADSVKGRFTISRDNAKNTVYLQMNSLKPEDTAVYYCAADWWGYDGRYDYWGQGTQVTVSS | high polyreactivity
QVHLVESGGGLVQAGGSLRLSCAASGSIFYWNAMGWYRQAPGKESELVATISSRGGRTSYADSVKGRFTLSRDNAKNTVYLQMNSLQPEDTAVDYCAKSIDGWYWRRRRYDYWGQGTQVTVSS | low polyreactivity
QVHLVESGGGLVQAGGSLRLSCAASGSILVWYAMGWYRHAPGKERELVAAISQSGGRTYYADSVKGRFTISRDNAKNNVYLQMNSLKPEDTAVYYGAAFYTSYWGYDYDYWGQGTQVTVSS | low polyreactivity
QVHLVESGGGLVQAGGSLRLSCAASGSIYLITAMGWYRQAPGKERELVAAISSRGTSTYYADSVKGRFTISRDNAKNTVYFQMNSLKAEDTAVYYCAARAIRANGYDYWGQCTQVTVSS | high polyreactivity
QVHLVESGGGLVQAGGSLRLSCAASGSTFAKNAMGWYRQAPGKERELVAAITRSAGSTYYADSVKGRFTISRDNAKNTVYLQMNSLKPEDTAVYYCDRRVSGTPWYGYWGQGTQVTVSS | high polyreactivity
QVHLVESGGGLVQAGGSLRLSCAASGSTFAPNAMGWYRQAPGKERELVASIRRGGSTHYADSVKGRFTISRDNAKNSVYLQMNSLKPEDTAVYYCATDQDPCSWYRYDYWGQGTQVTVSS | low polyreactivity
QVHLVESGGGLVQAGGSLRLSCAASGSTFDDYVMGWYRQAPGKESELVAAITRSGTSTYYADSVKGRFTISRDNAKNTVYLQMNSLKPEETAVYYCAAGPFGLKPYTLGYNYWGQGTQVTVSS | high polyreactivity
QVHLVESGGGLVQAGGSLRLSCAASGSTFGVYAMGWYRQAPAKERELVAAISSSTGSTYYADSVKGRFTISRDNEKNTVYLQMNSLKPEDTAVYFCAAAGYGKVRGDYWGQGSQVTVSS | low polyreactivity
QVHLVESGGGLVQAGGSLRLSCAASGSTFGYYAMGWYRQAPGKEREFVAAISSSGGSTYYADSVKGRFTISRDNAKNTVYLQMNSLKPEDTAVYYCARVGFPGFYWGQGTQVTVSS | high polyreactivity
QVHLVESGGGLVQAGGSLRLSCAASGSTFRFYAMGWYRQAPGKERELVATISRTGSTNYADSVKGRFTISRDNAKNTVYLQMNSLKPEDTAVYYCAAQRRRYPGYVQDDYWGQGTQVTVSS | high polyreactivity
QVHLVESGGGLVQAGGSLRLSCAASGSTFRSNAMGWYRQAPGKERELVASITSRGGSTYYADSVKGRFTISRDNAKNTVYLQMNSLKPEDTAVYYCATARSYLTYSYHYDYWGQGTQVTVSS | low polyreactivity
QVHLVESGGGLVQAGGSLRLSCAASGSTFSGNGMGWYRQAPGKERELVAAINWYGGTTYYADSVKGRFTISRDNAKNTVYLQMNSLKQEDTAVYYCARESTLTYYSDDFDYWGQGTQVTVSS | low polyreactivity
QVHLVESGGGLVQAGGSLRLSCAASGSTFVANTMRWSRQAPGKERELVASITSGDSTNYADSVKGRFTISRDNAKNTVYLQMNSLKPEDTAVYYCSAETVWYYVGGQLIYYSWGQGTQVTVSS | low polyreactivity
QVHLVESGGGLVQAGGSLRLSCAASGSTFYNNAMGWYRQAPGKERELVAAINYSGGSTNYADSVKGRFTISRDNAKNTVYLQMNILKPEDTAVYYCATDLHWLVTKYGYWGQGTQVTVSS | low polyreactivity
QVHLVESGGGLVQAGGSLRLSCAASGSTFYYTAMGWYRQPPGKESELVAAISRGGGSTYYADSVKGRFTISRDNAKNTVYVQMNSLKPEDTAVYYCAARRVGGGFYTWRNPAYEYWGQGTQVTVSS | high polyreactivity
QVHLVESGGGLVQAGGSLRLSCAASGSTIFLYMGWYRQAPGKERELVAAITVSGGSTYYADSVKGRFTISRDNAKNTVYLQMNSLKPEDTAVYYCNADWVLRYDYWGLGTQVTVSS | low polyreactivity
QVHLVESGGGLVQAGGSLRLSCAASGSTLGRYAMGWYRQAPGKERELVAAISWRGGSTYYADSVKGRFTISRDNAKNTDYLQMHSLKPEDTAVYYCADTYRFSEYYYWGQGTQVTVSS | high polyreactivity
QVHLVESGGGLVQAGGSLRLSCAASGSTLSFYAMGWYRQAPGKERELVAAISYSTGTTYYADSVKGRFTISRDNAKNTVYLQMNSLKPEDSAVYYCAARWVWLHSRYDYWGQGTQVTVSS | high polyreactivity
QVHLVESGGGLVQAGGSLRLSCAASGSTLVTNAIGWYRQAPGKERELVAAITFSGGTTYYADSVKGRFTISRDNAKNTVYLQLNSLKPEDTAVYYCAAENWLEYVGYDFWGQGTHVTVSS | high polyreactivity
QVHLVESGGGLVQAGGSLRLSCAASGSTNYYAMGRYRQAPGKEREFVSAISRDASSTYYADSVKGRFTISRDNAKNTVYLQMNSLKPEDTAVYYCAARIIRFSTSADKLVTSRYYYWGQGTQVTVSS | high polyreactivity
QVHLVESGGGLVQAGGSLRLSCAASVRTFYRNAMGWYRQAPGKERELVAAITRSGSTNYADSVKGRFTISRDNAKNTVYLQMNSLKPEDTAVYYCAAKFFRNTYSYGMDYWGQGTQVTVSS | high polyreactivity
QVHLVESGGGLVQAGGSLRLSCAATGRTFAGYAMGWYRQAPGKERQLVAAITNGGSTKYADSVKGRFTISRDNAKNSVYLQMNSLKPEDTAVYYCKARKRFYSGNTLMYYWGQGTQVTVSS | high polyreactivity

Sequence | polyreactivity (PSR sort gate)
QVHLVESGGGLVQAGGSLRLSCAATGSTFPFYTMGWYRQAPGKERELVASISVKGDTTYYADSVKGRFTISRDNAKNTVYLQMNSLKPDDTAVYYCATGPYIWQEWSPGFEYWGQGTQVTVSS | low polyreactivity
QVHLVESGGGLVQAGGSLRLSCAAYGFIFYPYAMGWNRQEPGKERELVAAIDWNGGGTYYADSVKGRFTISRDNAKNTVYLQMNSLKPEDTAVYYCNTYGAYTFDYWGQGTQVTVSS | high polyreactivity
QVHLVESGGGLVQAGGSLRLSCADSGLTFVFYAMGWYRPAPGKERELVAAISWSTGRTYYPDSVKGRFTISRDTAKNTVYLQMNSLNPEDSAVYYCAASYLGRKYVYWGQGTQVTVSS | high polyreactivity
QVHLVESGGGLVQAGGSLRLSCADSGRIILDYAMGWYRQAPGKERELVAAITWGGGSTNYADSVKGRFTNSRDNAKNTVYLQMNRLKPEDTAVYYCNADPHDQYDYWGKGTQVTVSS | low polyreactivity
QVHLVESGGGLVQAGGSLRLSCADSGSTFTSYAMGWYRQAPGKERDLVAAINYSGGSTYYADSVKGRFTISRDNAKNTVYLQMNSLKPEDTAVYYCAADGYIRQYVTYYYWGKGTQVTVSS | low polyreactivity
QVHLVESGGGLVQAGGSLRLSCAPSGFTFGYNAMGWYRQAPGKERELVAAISYRDGSTYYADSVKGRFTISRDTAKNTVYLQMNSLKPEDTAVYYCAAEVWYPGWGYDYWGQGTQVTVSS | high polyreactivity
QVHLVESGGGLVQAGGSLRLSCASSGSIFRWYAMGWYRPAPGKERELVAAISTSGGNTYYADSVKGRFTISRDNAKNTVYLQMNSLKPEDTAVYYCNALWYRSLSYRYDYWGQGTQVTVSS | high polyreactivity
QVHLVESGGGLVQAGGSLRLSCASSGSTFGYYAMGWYRQAPGKERELVAAITGRGGSTYYADSVKGRFTISRDNAKNTVYLQLISLKQEDTAVYYCAVGKYRLYYSGAYGYWGQGTQVTVSS | high polyreactivity
QVHLVESGGGLVQAGGSLRLSCASSGSTFRSYGMGWYRPAPGKERELVAAISSSGGSTYYADSVKGRFTISRDNAKNTVYLQMNSLKPEDSAVYYCAAGSRLVSARLYYWGQGTQVTVSS | high polyreactivity
QVHLVESGGGLVQAGGSLRLSCDASGRLIARYAMGWHRPAPGKERELVAAISSGGRTYYADSVKGRFTISRDNAKNTVYLQMNSLKPEDTAVYYCAASSGGATRGHDYWGQGTQVTVSS | high polyreactivity
QVHLVESGGGLVQAGGSLRLSCDASGSTFYCYAMGWYRQAPGKERELVASISWSGGRSYYADSVKGRFTISRDNAKNTDYLQMNSLYPEDTAVYYCAARRKGRYDYWGQGTQVTVSS | high polyreactivity
QVHLVESGGGLVQAGGSLRLSCPASGSTIRNYAMGLYRQAPGKERELVAAITKRGGTTYYADSVKGRFTISRDNAKNTVYLQMNSLKPEDTAVYYCAIGYNSSPFDYWGQGTQVTVSS | high polyreactivity
QVHLVESGGGLVQAGGSLRLSCSASGIIFYVYTMGWYRQARGKERELVAAISGSGGSTTYADSVKGRFTISRDNAKNTVYLQMNSLKPEDTAVYYCNAKKWFYRWCKFSEFDYWGQGTQVTVSS | high polyreactivity
QVHLVESGGGLVQAGGSLRLSCSASGSIFAINVMGWYRQAPGKEREFVAAITWSGGSTYYADSVKGRVTISRDNAKNTVYLQMFSLKPEDTAVYYCNARYPYKRRDYDYWGQGTQVTVSS | high polyreactivity
QVHLVESGGGLVQAGGSLRLSCSASGSTFFPYAMGWYRQAPGKERELVAAITSGGRTKYADSVKGRFTISRDNAKNTVYLQMNSLKPEDNAVYYCAARGLIKEYGGPYRRFGYWGQGTKVTVSS | high polyreactivity
QVHLVESGGGLVQAGGSLRLSFAASRSIFSKYVMGWYRQAPGKERELVASITSGGRTNYADSVKGRFTISRDNAKNTVYLQMNSLKPEDTAVYYCAARAFKTWYRSGVDYWGQGTQVTVSS | low polyreactivity
QVHLVESGGGLVQAGGSLRLSSAASGITFDDYAMGWYRQAPGKERELVAAISVSGGDTYYADSVKGRFTISRDNAKNTVYLQMNSLKPEVTAVYYCAAEVVSPRWYDYWGQGTQLTVSS | low polyreactivity
QVHLVESGGGLVQAGGSLRLSSAASGSIFQYNAMGWYRQAPGKERELVAGITTGGDTNYADSVKGRFTISRDNAKNTVYLHMNSLKPEDTAVYYCAARFGQWVSAYDYWGQGTQVTVSS | low polyreactivity
QVHLVESGGGLVQAGGSLRLTCAASGIIFLRYAIGWYRQAPGKERDLVAAITRGGITYYADSVKGRFTISRDNAKNTVYLQMNSLKPEDTAVYYCAATYSGNYSMCRGYDYWGQGTQVTVSS | low polyreactivity
QVHLVESGGGLVQAGGSLRLTCAASGIIFRLYAMGWYRQAPGKEREFVARISKRGGSTYYADSVKGRFTISRDNSKNTVYLQMNSLKPEDTAVYYCAADAPLSYYHDYDYWGQGTQVTVSS | high polyreactivity
QVHLVESGGGLVQAGGSLRLTCAASGSIFLGHAMGWYRQAPGNERDLVAAISSITGRTYYADSVKGRFTISRDNAKNNVYLHMNSLKPEDTAVYYCNKVSRSFIVNTDDYWGQGTQVTVSS | high polyreactivity

— the nanobody polyreactivity screen of Harvey et al. (2022)
